# Experimental data reported in paper PMC6613885.
# Molecular target: GST-LC3A
# Assay: GST-pulldown, in vitro-translated 35S-labelled protein, autoradiography quantification
# Conditions: Means ± SD of 3 independent experiments; parent: est. 0.5; read off a plot
row,response,Substance
1,0.25 % binding,"Myc-tagged BECN1, full-length, in vitro translated (from UniProt Q14457) F97A; I100A; S90E; S93E; S96E"
2,0.6 % binding,"Myc-tagged BECN1, full-length, in vitro translated (from UniProt Q14457) S90E; S93E; S96E"
3,0.25 % binding,"Myc-tagged BECN1, full-length, in vitro translated (from UniProt Q14457) F97A; I100A"

# Same assay, conditions: Means ± SD of 3 independent experiments; parent: est. 1.7; read off a plot
row,response,Substance
1,1.8 % binding,"Myc-tagged PIK3C3, full-length, in vitro translated (from UniProt Q8NEB9) F198A; I201A"
2,1.2 % binding,"Myc-tagged PIK3C3, full-length, in vitro translated (from UniProt Q8NEB9) F250A; V253A"
3,1 % binding,"Myc-tagged PIK3C3, full-length, in vitro translated (from UniProt Q8NEB9) F198A; I201A; F250A; V253A"

# Same assay, conditions: Means ± SD of 3 independent experiments; parent: est. 2.6; read off a plot
row,response,Substance
1,2.3 % binding,"Myc-tagged ATG14, full-length, in vitro translated (from UniProt Q6ZNE5) F64A; F67A"
2,1 % binding,"Myc-tagged ATG14, full-length, in vitro translated (from UniProt Q6ZNE5) F64A; F67A; W435A; L438A"
3,1.2 % binding,"Myc-tagged ATG14, full-length, in vitro translated (from UniProt Q6ZNE5) W435A; L438A"
